Ten molecules from patent US20250074980A1 (BRIGHAM AND WOMEN S HOSPITAL, published 2025) can be followed below.

Substitutions are numbered along the chain they refer to. In names and notes the source's numbering stands.

T1: His-tagged CEACAM1 (human, UniProt P13688 35-428)
T1 construct: 45 kDa SPR analyte; also called CEACAM1-HIS; CEACAM1 analyte
T1 sequence: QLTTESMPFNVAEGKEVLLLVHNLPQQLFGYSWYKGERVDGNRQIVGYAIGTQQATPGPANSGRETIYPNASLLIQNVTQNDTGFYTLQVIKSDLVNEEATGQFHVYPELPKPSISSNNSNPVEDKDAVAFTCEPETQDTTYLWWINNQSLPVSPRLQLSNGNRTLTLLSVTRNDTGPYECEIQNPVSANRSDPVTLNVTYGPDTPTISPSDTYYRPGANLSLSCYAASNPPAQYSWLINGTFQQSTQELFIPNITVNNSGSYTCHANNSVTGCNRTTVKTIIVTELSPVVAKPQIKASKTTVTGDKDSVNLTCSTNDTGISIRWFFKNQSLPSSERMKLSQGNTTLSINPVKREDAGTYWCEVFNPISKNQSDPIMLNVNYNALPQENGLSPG

B1: 8H3_9B3/CP08E05 (antibody, IgG4, V domains shown)
VH: EVQLLESGGGLVQPGGSLRLSCAASGFTFNAHAISWVRQAPGKGLEWVATISSGGTYTYYPDSVKGRFTISRDNSKNTLYLQMNSLKAEDTAMYYCARHDFDYFPYWFAHWGQGTLVTVSS
VL: EIVLTQSPATLSLSPGERATLSCRANSAVSYMYWYQQKPGQAPRPWIYLTSNRATGVPARFSGSGSGTDYTLTISSLEPEDFAVYYCQQWTTNPPTFGQGTKLEIK
notes: IgG4 (S241P), kappa
B2: 8H3_9C2/CP08F05 (antibody, IgG4, V domains shown)
VH: B1 VH with G26E, N30S, A31D, I34M, D100G
VL: B1 VL with T92S
notes: IgG4 (S241P), kappa; also called 8H3_9C2/CPO08_F05
B3: CP09C02/CP08F05 (antibody, IgG4, V domains shown)
VH: B1 VH with G26E, N30S, A31D, I34M, D100G, F104D, P105A, Y106A, H110Y
VL: B1 VL with T92S
notes: IgG4 (S241P), kappa
B4: 8H3_9B3/Vκ8 S29A (antibody, IgG4, V domains shown)
VH: B1 VH
VL: B1 VL with T91S, T92S
notes: IgG4 (S241P), kappa
B5: CP09B03/CP08E05 (antibody, IgG4, V domains shown)
VH: B1 VH with F104D, P105A, Y106A, H110Y
VL: B1 VL
notes: IgG4 (S241P), kappa
B6: 8H3_9B3/CP08F05 (antibody, IgG4, V domains shown)
VH: B1 VH
VL: B1 VL with T92S
notes: IgG4 (S241P), kappa
B7: VH2/Vκ6 (antibody, IgG4, V domains shown)
VH: B1 VH with T28I, N30S, A31S, A33G, I34M, K87R, F104D, P105A, Y106A, H110Y
VL: DIQLTQSPSFLSASVGDRVTITCRANSSVSYMAWYQQKPGKAPKLLIYLTSNLQSGVPSRFSGSGSGTEFTLTISSLQPEDFATYYCQQWSSNPPTFGQGTKLEIK
notes: IgG4 (S241P), kappa
B8: VH3/Vκ6 (antibody, IgG4, V domains shown)
VH: EVQLLESGGGLVQPGGSLRLSCAASGFIFSSHGMSWVRQAPGKGLEWVATISSGGTYTYYADSVKGRFTISRDNSKNTLYLQMNSLRAEDTAMYYCARHDFDYDAAWFAYWGQGTLVTVSS
VL: B7 VL
notes: IgG4 (S241P), kappa
B9: VH1/Vκ6 (antibody, IgG4, V domains shown)
VH: B8 VH with A61P, R87K
VL: B7 VL
notes: IgG4 (S241P), kappa
B10: VH4/Vκ6 (antibody, IgG4, V domains shown)
VH: B8 VH with A49S, M93V
VL: B7 VL
notes: IgG4 (S241P), kappa

One test has as its target T1, His-tagged CEACAM1. Kind of test: SPR single-cycle, purified IgG captured. The essentials: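 Purified IgG was captured on a Series S Protein A chip in a Biacore T200 at 25° C in HBS-P+ (pH 7.4), with His-tagged CEACAM1 as the analyte in single-cycle kinetics surface plasmon resonance. Kon, koff and Kd were fitted from signals corrected for the reference channel and blank runs, and relative KD was calculated against the parent antibody tested alongside.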
The Kd is the free concentration of one partner at which half of the binding sites on the other are occupied at equilibrium, for simple one-to-one binding. Broadly, the koff is the first-order rate constant of dissociation. What is called kon is a measure of how fast the partners come together. A higher kon goes with fast association. As to B1, the Kd was 69 nM, the koff was 0.0065 s⁻¹, the kon was determined as 95000 M⁻¹ s⁻¹ and the “relative KD to parent” value amounted to 6.9.
For B2, in that order: 76 nM, 0.0055 s⁻¹, 73000 M⁻¹ s⁻¹ and 6.3.
For B3, in that order: 95 nM, 0.01 s⁻¹, 110000 M⁻¹ s⁻¹ and 5.
As for B4, binding was characterised by a dissociation constant (Kd) of 67 nM, the koff is 0.0062 s⁻¹, the kon was 92000 M⁻¹ s⁻¹ and the “relative KD to parent” value stood at 7.1.
Take B5: the Kd came out at 90 nM, the koff amounted to 0.0096 s⁻¹, the kon is 110000 M⁻¹ s⁻¹ and the “relative KD to parent” value is 5.3.
Turning to B6, the Kd was determined as 59 nM, the koff worked out at 0.0056 s⁻¹, the kon stood at 95000 M⁻¹ s⁻¹ and the “relative KD to parent” value was 8.

Another test deals with T1, His-tagged CEACAM1. Kind of test: SPR single-cycle, IgG captured. The method, then: As an alternative approach to assess the binding of the 36 antibody combinations and the three control antibodies to CEACAM1, a kinetic analysis was performed on a Biacore T200 (serial no. 1909913) running Biacore T200 Evaluation Software V2.0.1 (Uppsala, Sweden). All experiments were run at 25° C. with HBS-P+ running buffer (pH 7.4) (GE Healthcare, cat. no. BR100671). All kinetic experiments were performed using His-tagged CEACAM1 as the analyte. For all experiments, antibodies were immobilized onto a Series S Protein A sensor chip surface. For kinetic experiments, the amount of immobilized/captured ligand was limited to avoid mass transfer effects at the surface of the chip with the surface ideally having an analyte binding level (Rₘₐₓ) of 50-150 RUs. Using a MW of 45 kDa for the CEACAM1 analyte, 150 kDa for the antibody ligand (estimated value for IgG), 50 RU for Rmax and the stoichiometry (Sm) as 2 due to the ability of each antibody to bind 2 target molecules, a target response level of ˜75 RUs was set for capture of all the sample antibodies.
Single cycle analysis of the 36 antibody combinations and the three control antibodies was performed on purified antibodies (Vκ1 to Vκ6 variants) or on the supernatants of the transiently transfected HEK EBNA cells (Vκ7 to Vκ12 variants). In some instances, where supernatant was not available, purified chimeric antibody VH0/Vκ0 was spiked into HEK EBNA culture medium to use as a positive control. Antibodies were diluted in HBS-P+ to a concentration of 1 μg/ml (as determined by an IgG quantitation ELISA). At the start of each cycle, antibodies were loaded onto Fc2, Fc3 and Fc4 of a protein A chip and IgG captured at a flow rate of 8 μl/min to give an RU of ˜75. The surface was then allowed to stabilize. Single cycle kinetic data was obtained at a flow rate of 50 μl/min to minimize any potential mass transfer effects. Multiple repeats of the chimeric antibody VH0/Vκ0 were performed to check the stability of the surface and analyte over the kinetic cycles. The signal from the reference channel Fc1 (no antibody) was subtracted from that of Fc2, Fc3 and Fc4 to correct for differences in non-specific binding to a reference surface. A 5 point 2-fold dilution range from 3.125 to 50 nM CEACAM1 without regeneration between each concentration was used.
Turning to B7, the binding result is on record as “no binding (tested: 50 nM)”.
With B8, the binding result is “no binding (tested: 50 nM)”.
On the same count and under the same terms, to B9 belongs “no binding (tested: 50 nM)”.
On to B10, for which the binding result is recorded as “no binding (tested: 50 nM)”.

For the next test, the target named is T1, His-tagged CEACAM1. Kind of test: SPR single-cycle, supernatant IgG captured. The method, then: In order to assess the binding of the humanized, affinity matured reformatted lead IgGs, single-cycle kinetics analysis was performed on crude supernatants using a Biacore T200 running Biacore T200 Control Software V2.0.1 and Biacore T200 Evaluation Software V3.0. Antibodies were diluted in HBS-P+ to a final concentration of 0.5 μg/ml. At the start of each cycle, antibodies were loaded onto Fc2, Fc3 and Fc4 of the Protein A chip. IgGs were captured at a flow rate of 10 μl/min to give an immobilisation level (RL) of ˜100 RU (a level calculated to obtain a Rₘₐₓ of ˜50-150 RU once the analyte is bound). The surface was then allowed to stabilize. Single-cycle kinetics data was obtained with CEACAM1 as the analyte at a flow rate of 80 μl/min to minimize any potential mass transfer effects. Multiple repeats with the parent (VH1/Vκ8 S29A) antibody were performed to check the stability of the surface and analyte over the kinetic cycles. The signal from the reference channel Fc1 (no antibody) was subtracted from that of Fc2, Fc3 and Fc4 to correct for differences in non-specific binding to the reference surface. A three point, two-fold dilution range from 70 nM to 280 nM CEACAM1 without regeneration between each concentration was used. The signal from each antibody blank run (no CEACAM1) was subtracted to correct for differences in surface stability. The association phase for the three injections of increasing concentrations of CEACAM1 was monitored for 80 seconds each time and a single dissociation phase was measured for 150 seconds following the last injection of CEACAM1. Regeneration of the Protein A surface was conducted using two injections of 10 mM glycine-HCL pH 1.5 followed by a stabilization period of 250 seconds.
As for B1, the Kd turned out to be 77 nM, the koff was 0.0072 s⁻¹, the kon was determined as 93000 M⁻¹ s⁻¹ and the “relative KD to parent” value stood at 7.3.
On to B2, for which the Kd worked out at 93 nM, the koff is 0.0061 s⁻¹, the kon stood at 66000 M⁻¹ s⁻¹ and the “relative KD to parent” value was 6.
For B4, in that order: 77 nM, 0.0069 s⁻¹, 90000 M⁻¹ s⁻¹ and 7.2.
Regarding B6, the Kd came to 70 nM, the koff was 0.0063 s⁻¹, the kon stood at 90000 M⁻¹ s⁻¹ and the “relative KD to parent” value was 8.

Another test has as its target T1, His-tagged CEACAM1. The test can be described thus: SPR single-cycle, supernatant IgG captured. This is another data set of the same source. The essentials: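 IgG came from supernatants of HEK EBNA cells transiently transfected by PEI in 6-well plates and harvested 5-7 days later. Supernatants were quantified by ELISA and filtered. Single-cycle surface plasmon resonance was run on a Biacore T200 at 25° C in HBS-P+ (pH 7.4), with IgG captured on Protein A and His-tagged CEACAM1 as analyte. Kon, koff and Kd were fitted, and relative KD was calculated against the parent antibody assayed in the same experiment.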
Take B3: the Kd was 100 nM, the koff is 0.011 s⁻¹, the kon came out at 110000 M⁻¹ s⁻¹ and the “relative KD to parent” value is 5.5.
For B5, in that order: 97 nM, 0.01 s⁻¹, 110000 M⁻¹ s⁻¹ and 5.7.
